From patent US20210038739A1 (JCR PHARMACEUTICALS, published 2021) come the findings set out here.

Test [1] concerns the target T1, recombinant human TfR extracellular region with N-terminal histidine tag (Sino Biological Inc.) (human, UniProt P02786 89-760).
T1 construct: also called r human TfR; r human TfR-ECD (Histag); not shown: Histidine tag at the N-terminus
The test can be described thus: BLI (Octet RED96) by the method of Example 7.

For test [2], the target named is T2, recombinant monkey TfR extracellular region (Macaca fascicularis) with N-terminal histidine tag (Sino … (Macaca fascicularis (crab-eating …, UniProt Q5RDH6 89-760 (Pongo abelii entry)))).
T2 construct: also called r monkey TfR; r monkey TfR-ECD (Histag); not shown: Histidine tag at the N-terminus
T2 chain: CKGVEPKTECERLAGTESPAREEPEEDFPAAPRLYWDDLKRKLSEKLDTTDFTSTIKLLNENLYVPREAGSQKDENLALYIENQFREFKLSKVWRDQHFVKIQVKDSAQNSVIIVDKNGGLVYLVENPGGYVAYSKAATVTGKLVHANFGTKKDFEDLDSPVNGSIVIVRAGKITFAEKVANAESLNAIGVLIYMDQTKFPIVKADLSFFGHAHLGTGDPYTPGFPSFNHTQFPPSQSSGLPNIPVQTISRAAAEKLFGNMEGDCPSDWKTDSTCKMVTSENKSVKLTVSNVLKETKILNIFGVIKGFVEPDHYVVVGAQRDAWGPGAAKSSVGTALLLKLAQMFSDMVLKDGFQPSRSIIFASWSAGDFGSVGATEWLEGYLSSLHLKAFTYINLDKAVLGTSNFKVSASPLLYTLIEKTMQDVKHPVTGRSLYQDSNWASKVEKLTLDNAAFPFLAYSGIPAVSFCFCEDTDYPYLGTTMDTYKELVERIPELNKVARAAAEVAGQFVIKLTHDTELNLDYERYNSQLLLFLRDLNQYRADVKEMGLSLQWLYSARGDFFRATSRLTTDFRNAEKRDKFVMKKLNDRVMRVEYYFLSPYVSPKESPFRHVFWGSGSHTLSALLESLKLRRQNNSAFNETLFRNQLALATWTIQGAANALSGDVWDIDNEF
As to the kind of experiment: BLI (Octet RED96) by the method of Example 7.

Test [3] deals with T1, recombinant human TfR extracellular …. As to the kind of experiment: BLI (Octet RED96), His-tagged TfR ECD loaded on Ni-NTA sensor, antibody in solution; human TfR. As to the method:
(§1) Purified anti-hTfR antibody No. 3 was diluted in two steps with HBS-P+ (10 mM HEPES containing 150 mM NaCl, 50 μM EDTA and 0.05% Surfactant P20), respectively, to prepare antibody solutions of 7 different concentrations, 0.78125 to 50 nM (0.117 to 7.5 μg/mL). These antibody solutions were used as sample solutions. The r human and r monkey TfRs were respectively diluted with HBS-P+ to prepare 25 pg/mL solutions, which were used as r human TfR-ECD (Histag) solution and r monkey TfR-ECD (Histag) solution, respectively.
(§2) Each of the sample solutions prepared above by 2-fold dilution steps was added, 200 μL/well, to a 96-well plate, black (Greiner Bio-One Inc.). Each of the r human TfR-ECD (Histag) solution and the r monkey TfR-ECD (Histag) solutions prepared above was added, 200 μL/well, to predetermined wells. To respective wells for baseline, dissociation and washing were added HBS-P+, 200 μL/well. To wells for regeneration were added 10 mM Glycine-HCl (pH 1.7), 200 μL/well. To wells for activation was added 0.5 mM NiCl₂ solution, 200 μL/well. The plate and biosensor (Biosensor/Ni-NTA: ForteBio Inc., a division of Pall Corporation) were set in the prescribed positions of Octet RED96.
(§3) The measurement was performed at 25 to 30° C.

The target of test [4] is T2, recombinant monkey TfR extracellular …. As to the kind of experiment: BLI (Octet RED96), His-tagged TfR ECD loaded on Ni-NTA sensor, antibody in solution; monkey TfR. As to the method:
as §1, §2, §3

A value given as a limit tells only on which side of the number the result lay.

B1: humanized anti-hTfR antibody No. 3 (antibody, human IgG4 S228P, kappa, V domains shown)
VH: EVQLVQSGAEVKKPGESLKISCKGSGYSFTNYWLGWVRQMPGKGLEWMGDIYPGGDYPTYSEKFKVQVTISADKSISTAYLQWSSLKASDTAMYYCARSGNYDEVAYWGQGTLVTVSS
VL: DIVMTQTPLSLSVTPGQPASISCRSSQSLVHSNGNTYLHWYLQKPGQSPQLLIYKVSNRFSGVPDRFSGSGSGTDFTLKISRVEAEDVGVYYCSQSTHVPWTFGQGTKVEIKR
notes: The heavy chain is of IgG4 type; also called humanized antibody of anti-hTfR antibody No. 3
As for B1, the Kd in test [1] is at most 1 pM; in test [2], about 1000 pM.

B2: mouse anti-hTfR antibody No. 3 (antibody, V domains shown)
VH: EVQLQESGAELVRPGTSVKISCKASGYTFMNYWLGWVKQRPGHGLEWIGDIYPGGDYPTYSEKFKVKAILTADTSSSSVYLHLSSLTSEDSAVYFCARSGNYDEVAYWGQGTLVTVST
VL: DIVMTQTTLSLPVSLGDQASISCRSSQSLVHSNGNTYLHWYLQKPGQSPKLLIYKVSNRFSGVPDRFSGSGSGTDFTLKISRVEAEDLGVFFCSQSTHVPWTFGGGTKLEIKR
notes: Mouse hybridoma antibody; also called anti-hTfR No. 3; antibody of Clone 3 line
For B2, the Kd in test [3] and in test [4] was at most 1 pM each time.
